Key:
Assay in all cases: purified protein
Settings in all cases: 50 mM Hepes pH 8.0
purified protein [1] = substrate: CC(C)C[C@H](NC=O)C(=O)O
purified protein [2] = substrate: O=CN[C@@H](Cc1ccc(O)cc1)C(=O)O
purified protein [3] = substrate: CC(C)C[C@H](NC(=O)[C@@H](N)CC(=O)O)C(=O)O
purified protein [4] = substrate: CC(C)C[C@H](NC(=O)[C@H](C)N)C(=O)O
purified protein [5] = substrate: O=CN[C@@H](Cc1ccccc1)C(=O)O
purified protein [6] = substrate: CC[C@H](C)[C@H](NC(C)=O)C(=O)O
purified protein [7] = substrate: CC(=O)N[C@@H](CC(C)C)C(=O)O
purified protein [8] = substrate: CSCC[C@H](NC=O)C(=O)O
purified protein [9] = substrate: CC(C)[C@H](NC=O)C(=O)O
purified protein [10] = substrate: C[C@H](N)C(=O)N[C@@H](Cc1ccccc1)C(=O)O
purified protein [11] = substrate: CC(=O)N[C@@H](Cc1ccccc1)C(=O)O
purified protein [12] = substrate: CC(=O)N[C@@H](Cc1ccc(O)cc1)C(=O)O
purified protein [13] = substrate: CC[C@H](C)[C@H](NC=O)C(=O)O

B1: Cc0300 (Caulobacter vibrioides CB15) (protein)
chain: QATFVQAGRLLADPATGKVEIAKTLVLENGKVTRILDGYVAEPGGKVVDLKDSFVLPGLIDSHVHLTGQQNPNGRLQAVTQSPSDSAMVGAGFARKTLMAGFTTVANLGANSQAIFALREGVKRGDVAGPRILASGSSISVHGGHGDINGYSEDVMHALRPESVCSGADDCRRAVREQIWLGADLIKITATGGVLSNTAAGLAKQFSDAELAAIVESAHSMGRKVTAHAHGGDGINAFLKAGGDSIEHGTYLDNEGIALMKKSGAYLVPTLMAGDFVYRIASGPNNYFTPAQTAKALEAGPKMLDMVRRAHADGVKVAFGTDSGVSAHGDNAGEFALLVKAGMTPLEAIQTATVNAADHFSLSNEIGSLTPGKAADLIAVKGDPLKDVTELQRVTSVIKGGVVYK
- Km (purified protein [1]): 130 ± 10 µM
- kcat (purified protein [1]): 39 ± 2 s⁻¹
- kcat/Km (purified protein [1]): 300000 ± 30000 M⁻¹ s⁻¹
- Km (purified protein [2]): 90 ± 10 µM
- kcat (purified protein [2]): 33 ± 1 s⁻¹
- kcat/Km (purified protein [2]): 390000 ± 40000 M⁻¹ s⁻¹
- Km (purified protein [3]): 220 ± 40 µM
- kcat (purified protein [3]): 29 ± 1 s⁻¹
- kcat/Km (purified protein [3]): 130000 ± 20000 M⁻¹ s⁻¹
- Km (purified protein [4]): 350 ± 40 µM
- kcat (purified protein [4]): 37 ± 2 s⁻¹
- kcat/Km (purified protein [4]): 110000 ± 10000 M⁻¹ s⁻¹
- Km (purified protein [5]): 260 ± 30 µM
- kcat (purified protein [5]): 52 ± 2 s⁻¹
- kcat/Km (purified protein [5]): 200000 ± 20000 M⁻¹ s⁻¹
- Km (purified protein [6]): 140 ± 20 µM
- kcat (purified protein [6]): 2.6 ± 0.1 s⁻¹
- kcat/Km (purified protein [6]): 19000 ± 2000 M⁻¹ s⁻¹
- Km (purified protein [7]): 150 ± 30 µM
- kcat (purified protein [7]): 2.5 ± 0.1 s⁻¹
- kcat/Km (purified protein [7]): 16000 ± 3000 M⁻¹ s⁻¹
- Km (purified protein [8]): 410 ± 30 µM
- kcat (purified protein [8]): 12 ± 1 s⁻¹
- kcat/Km (purified protein [8]): 29000 ± 2000 M⁻¹ s⁻¹
- Km (purified protein [9]): 80 ± 10 µM
- kcat (purified protein [9]): 18 ± 1 s⁻¹
- kcat/Km (purified protein [9]): 220000 ± 30000 M⁻¹ s⁻¹
- Km (purified protein [10]): 660 ± 50 µM
- kcat (purified protein [10]): 19 ± 1 s⁻¹
- kcat/Km (purified protein [10]): 29000 ± 3000 M⁻¹ s⁻¹
- Km (purified protein [11]): 310 ± 30 µM
- kcat (purified protein [11]): 5.3 ± 0.2 s⁻¹
- kcat/Km (purified protein [11]): 17000 ± 2000 M⁻¹ s⁻¹
- Km (purified protein [12]): 170 ± 20 µM
- kcat (purified protein [12]): 4.6 ± 0.2 s⁻¹
- kcat/Km (purified protein [12]): 27000 ± 3000 M⁻¹ s⁻¹
- Km (purified protein [13]): 70 ± 10 µM
- kcat (purified protein [13]): 20 ± 1 s⁻¹
- kcat/Km (purified protein [13]): 290000 ± 40000 M⁻¹ s⁻¹

B2: Sgx9355e (Alteromonas macleodii) (protein)
chain: MSLDVDSKTLIHAGKLIDGKSDQVQSRISIVIDGNIISDIKKGFISSNDFEDYIDLRDHTVLPGLMDMHVHFGQEYQSKAQAPIKVEREMQAILATQHAYVTFKSGFTTVRQVGDSGLVAISLRDAINSGKLAGPRIFAAGKTIATTGGHADPTNGKAVDDYDYPVPEQGVVNGPYEVYAAVRQRYKDGADGIKITVTGGVLSVAKSGQNPQFTQEEVDAVVSAAKDYGMWVAVHAHGAEGMKRAIKAGVDSIEHGTFMDLEAMDLMIENGTYYVPTISAGEFVAEKSKIDNFFPEIVRPKAASVGPQISDTFRKAYEKGVKIAFGTDAGVQKHGTNWKEFVYMVENGMPAMKAIQSATMETAKLLRIEDKLGSIESGKLADLIAVKGNPIEDISVLENVDVVIKDGLLYE
- Km (purified protein [1]): 260 ± 40 µM
- kcat (purified protein [1]): 0.072 ± 0.003 s⁻¹
- kcat/Km (purified protein [1]): 280 ± 40 M⁻¹ s⁻¹
- Km (purified protein [4]): 250 ± 30 µM
- kcat (purified protein [4]): 0.34 ± 0.01 s⁻¹
- kcat/Km (purified protein [4]): 1300 ± 200 M⁻¹ s⁻¹
- Km (purified protein [7]): 110 ± 10 µM
- kcat (purified protein [7]): 0.032 ± 0.01 s⁻¹
- Km (purified protein [10]): 70 ± 10 µM
- kcat (purified protein [10]): 0.41 ± 0.01 s⁻¹
- kcat/Km (purified protein [10]): 5800 ± 600 M⁻¹ s⁻¹
